{"source": "paper PMC2886958", "about": "(The Journal of General Virology, 2008)", "target": "ACE-2–GFP, secreted form of angiotensin converting enzyme-2 fused to green fluorescent protein (UniProt Q9BYF1)", "sequence (Q9BYF1 18-740)": "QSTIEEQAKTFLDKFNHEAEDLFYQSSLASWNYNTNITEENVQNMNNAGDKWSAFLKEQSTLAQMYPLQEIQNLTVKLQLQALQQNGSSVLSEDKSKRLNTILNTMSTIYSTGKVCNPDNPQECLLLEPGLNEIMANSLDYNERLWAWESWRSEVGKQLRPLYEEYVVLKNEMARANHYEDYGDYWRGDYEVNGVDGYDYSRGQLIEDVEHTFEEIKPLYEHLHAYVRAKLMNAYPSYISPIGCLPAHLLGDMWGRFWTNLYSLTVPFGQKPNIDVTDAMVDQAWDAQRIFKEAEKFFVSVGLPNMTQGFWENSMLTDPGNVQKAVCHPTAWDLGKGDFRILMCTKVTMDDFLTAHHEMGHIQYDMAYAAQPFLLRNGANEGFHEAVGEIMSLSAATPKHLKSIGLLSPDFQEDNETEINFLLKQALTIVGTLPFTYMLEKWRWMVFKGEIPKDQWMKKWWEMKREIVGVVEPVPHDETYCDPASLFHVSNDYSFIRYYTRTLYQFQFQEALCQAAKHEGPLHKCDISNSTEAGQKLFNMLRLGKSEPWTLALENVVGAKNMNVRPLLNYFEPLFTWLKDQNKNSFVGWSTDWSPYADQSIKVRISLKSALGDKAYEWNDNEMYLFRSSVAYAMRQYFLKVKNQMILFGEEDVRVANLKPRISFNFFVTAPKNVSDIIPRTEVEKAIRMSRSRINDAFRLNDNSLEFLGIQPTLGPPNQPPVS", "experiment": "SPR; format not told in the text (Supplementary Fig. S2)", "data": [{"binder": "SARS-CoV S1 (residues 19–713), Fc-tagged fusion protein (Fc fusion) not shown", "values": [{"measurement": "Kd", "value": 87.1, "unit": "nM"}]}]}
